Legend:
M85E = target: T1, M85E; assay: ELISA on coated antigen (100 ng), anti-VHH-HRP, A450
T1 construct: also called human CI-M6PR Dom1-3His6 M85E
T1 chain: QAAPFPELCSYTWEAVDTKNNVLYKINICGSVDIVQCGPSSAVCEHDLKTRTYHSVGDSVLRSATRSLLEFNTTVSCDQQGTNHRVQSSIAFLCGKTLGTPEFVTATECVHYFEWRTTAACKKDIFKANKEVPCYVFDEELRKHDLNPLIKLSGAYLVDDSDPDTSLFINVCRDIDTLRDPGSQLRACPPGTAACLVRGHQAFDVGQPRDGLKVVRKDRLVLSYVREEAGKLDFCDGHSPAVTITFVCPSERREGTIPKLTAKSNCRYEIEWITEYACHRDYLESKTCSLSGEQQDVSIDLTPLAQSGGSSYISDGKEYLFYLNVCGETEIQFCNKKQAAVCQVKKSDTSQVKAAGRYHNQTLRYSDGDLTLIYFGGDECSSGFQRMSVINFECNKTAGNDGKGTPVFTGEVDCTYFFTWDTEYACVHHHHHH
Method: (§1) To determine the effect of site-directed mutations, an ELISA was performed. To this end, 100 ng of each successfully purified mutant was coated per well on Nunc Maxisorp plates in 50 mM MES, 150 mM NaCl, pH 6.5 buffer overnight at 4° C. […] Coating-only controls were included for background correction. […] Reactions were stopped after five minutes using a 2N H₂SO₄ solution and plates were read at 450 nm, with a 655 nm background correction. Data were analyzed using the GraphPad Prism 9 software.

D87L = target: T2, D87L; assay: as above
T2 construct: also called human CI-M6PR Dom1-3His6 D87L
T2 chain: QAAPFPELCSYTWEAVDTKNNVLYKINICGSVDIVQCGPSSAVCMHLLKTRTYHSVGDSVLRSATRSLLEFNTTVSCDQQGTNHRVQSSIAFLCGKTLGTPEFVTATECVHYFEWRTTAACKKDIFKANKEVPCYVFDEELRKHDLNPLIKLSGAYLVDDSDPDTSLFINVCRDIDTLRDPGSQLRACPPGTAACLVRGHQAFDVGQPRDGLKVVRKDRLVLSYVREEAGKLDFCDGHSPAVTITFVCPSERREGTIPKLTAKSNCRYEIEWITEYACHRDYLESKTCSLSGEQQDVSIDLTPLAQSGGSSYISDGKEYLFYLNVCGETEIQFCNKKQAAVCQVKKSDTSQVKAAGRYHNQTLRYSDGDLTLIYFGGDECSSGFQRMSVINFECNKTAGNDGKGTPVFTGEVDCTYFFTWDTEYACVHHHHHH
Method: as §1

F457E = target: T3, F457E; assay: as above
T3 construct: also called human CI-M6PR Dom1-3His6 F457E
T3 chain: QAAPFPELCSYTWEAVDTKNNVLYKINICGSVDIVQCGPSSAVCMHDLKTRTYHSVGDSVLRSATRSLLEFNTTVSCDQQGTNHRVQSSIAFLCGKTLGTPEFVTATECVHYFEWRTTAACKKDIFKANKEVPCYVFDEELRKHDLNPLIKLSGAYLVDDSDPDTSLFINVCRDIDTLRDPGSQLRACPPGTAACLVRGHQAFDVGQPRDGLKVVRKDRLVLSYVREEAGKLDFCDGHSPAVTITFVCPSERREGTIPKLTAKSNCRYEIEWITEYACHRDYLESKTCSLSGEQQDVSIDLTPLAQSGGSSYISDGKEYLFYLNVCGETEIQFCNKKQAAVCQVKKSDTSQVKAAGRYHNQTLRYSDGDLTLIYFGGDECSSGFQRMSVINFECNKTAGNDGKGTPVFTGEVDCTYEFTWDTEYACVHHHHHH
Outline: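 Each purified mutant coated at 100 ng per well in 50 mM MES, 150 mM NaCl, pH 6.5 overnight at 4° C; coating-only wells used for background correction. Detection with anti-VHH-HRP, stopped after five minutes with 2N H₂SO₄, read at 450 nm with 655 nm correction.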

[1] = target: T4, recombinant human domain 1-3His6 of the cation-independent mannose-6-phosphate receptor (human, UniProt P11717 41-467); assay: BLI exp 2, dissoc pH not printed (between 7 and 6, presumably 6.5); pH not given; row between pH 7 and pH 6 (6.5 in the VHH1, VHH7 and VHH8 blocks)
T4 construct: Biotinylated (NHS-PEG4-biotin) for BLI; Glycosylated; also called hDom1-3His6; hCI-M6PRD1-D3

[2] = target: T4, recombinant human domain 1-3His6 of the …; assay: BLI, dissoc pH 5.5, mean of local fits
Method: FIGS. 58 & 59. […] BLI was performed on an Octet Red96 (FortéBio) instrument in kinetics buffer (0.2 M Na₂HPO₄, 0.1 M Na⁺ citrate, 0.01% bovine serum albumin, 0.002% Tween-20). Biotinylated human domain₁₋₃His₆ was immobilized on Streptavidin SA biosensors (Sartorius) to a signal of 0.6 nm. […] Between assays, biosensors were regenerated by three times 10 s exposure to regeneration buffer (10 mM glycine pH 3). The degree of association and dissociation was measured in δ nm over time (s).
After loading, the tips were incubated with VHHs serially diluted in pH 7.4 kinetic buffer during the association phase and dissociation was performed at pH 7.4, pH 6.5, pH 6.0, pH 5.5 and pH 5.0. All biosensor tips were then regenerated before analysis of the subsequent VHH. Table 13 summarizes the kinetic parameters retrieved after processing and curve fitting of the BLI measurements. When both association and dissociation were performed at pH 7.4, a global fit was performed according to the 1:1 binding model of which the resulting affinity constants (KD), association (kₒₙ) and dissociation rate constants (koff) are shown. For measurements with association at pH 7.4 and dissociation at pH 6.5, 6.0, 5.5 and 5.0, the depicted dissociation rate constants are an average of the parameters determined by local curve fitting of the dissociation of 200, 100 and 50 nM VHH.

B1: anti-CI-M6PR VHH8 (VHH)
VHH: QVQLQESGGGLVQAGGSLRLSCEASGRTFNTYNWGWFRQAPGKEREFVAAIRWSSSKTSYADSVKGRFTISRDNAKNTIYLQMNSLKPEDTAVYYCAASIVDFTTNPSHFGSWGQGTQVTVSS
notes: His6-tagged (Pichia pastoris)
M85E
  EC50 (read off the curve): ~3 nM
D87L
  EC50 (read off the curve): ~4 nM
F457E
  EC50 (read off the curve): ~10 nM

B2: anti-CI-M6PR VHH5 (VHH)
VHH: QVQLQESGGGLVQAGGSLKLSCAAAGRTFSRLAMGWFRQAPGKEREFVAAISENGDSIHYSDSVKGRFAVSRDNAKNTVYLQMNSLKPEDTAIYYCAADRAAYYCSGSGCYPSRAPAAASYDYWGQGTQVTVSS
notes: His6-tagged; made in Pichia pastoris, later also in E. coli WK6
M85E
  EC50 (read off the curve): ~2 nM
D87L
  EC50 (read off the curve): ~2 nM
[1]
  kon: 1.3e+06 M⁻¹ s⁻¹

B3: anti-CI-M6PR VHH 1H11 (VHH)
VHH: QVQLQESGGGLVQPGGSLRLSCAASGIIFSDNRMDWYRQAPGKQREWVATLASYGWKTYADSVKDRFTISRDNAKNTVNLYMNSLQPEDTAVYYCNSGQYWGQGTQVTVSS
notes: made in E. coli WK6, His-tag purified
[2]
  koff: 0.0063 s⁻¹
F457E
  EC50 (read off the curve): ~0.4 nM
